In patent US20060211610A1 (IPSEN PHARMA S A S, published 2006) one finds Ki data, which are given here for twelve molecules.

Non-standard residues stand in square brackets, D forms with d. Ala(4-thiazolyl) = N[C@@H](Cc1cscn1)C(=O)O; 2Pal = N[C@@H](Cc1ccccn1)C(=O)O; 3Pal = N[C@@H](Cc1cccnc1)C(=O)O; 4Pal = N[C@@H](Cc1ccncc1)C(=O)O; d2Pal = N[C@H](Cc1ccccn1)C(=O)O; Ac6c = NC1(C(=O)O)CCCCC1; Ac5c = NC1(C(=O)O)CCCC1

In one assay the target is T1, Y2 receptor (human, UniProt P49146 1-381).
T1 construct: whole, on cells; Assayed as membrane homogenates of SK-N-BE2 cells, not intact cells
T1 sequence (looked up): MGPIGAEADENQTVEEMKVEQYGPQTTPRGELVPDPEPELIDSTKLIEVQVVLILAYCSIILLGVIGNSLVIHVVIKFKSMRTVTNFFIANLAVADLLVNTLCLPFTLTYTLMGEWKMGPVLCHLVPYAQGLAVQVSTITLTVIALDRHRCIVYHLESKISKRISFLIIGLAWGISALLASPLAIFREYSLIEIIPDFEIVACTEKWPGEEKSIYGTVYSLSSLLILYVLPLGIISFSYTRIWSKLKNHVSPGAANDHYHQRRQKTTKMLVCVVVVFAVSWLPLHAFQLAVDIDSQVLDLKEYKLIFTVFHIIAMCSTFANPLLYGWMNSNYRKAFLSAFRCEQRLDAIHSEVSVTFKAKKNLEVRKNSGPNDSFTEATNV
Put plainly: radioligand competition against [125I]PYY(3-36), SK-N-BE2 membranes, Cheng-Prusoff. For orientation: Loss of bound radioactivity is the signal in a displacement assay; it reports binding, not function.

Another assay has as its target T2, Y1 receptor (human, UniProt P25929 1-384).
T2 construct: whole, on cells; Assayed as membrane homogenates of SK-N-MC cells, not intact cells; also called NPY Y1
T2 sequence (looked up): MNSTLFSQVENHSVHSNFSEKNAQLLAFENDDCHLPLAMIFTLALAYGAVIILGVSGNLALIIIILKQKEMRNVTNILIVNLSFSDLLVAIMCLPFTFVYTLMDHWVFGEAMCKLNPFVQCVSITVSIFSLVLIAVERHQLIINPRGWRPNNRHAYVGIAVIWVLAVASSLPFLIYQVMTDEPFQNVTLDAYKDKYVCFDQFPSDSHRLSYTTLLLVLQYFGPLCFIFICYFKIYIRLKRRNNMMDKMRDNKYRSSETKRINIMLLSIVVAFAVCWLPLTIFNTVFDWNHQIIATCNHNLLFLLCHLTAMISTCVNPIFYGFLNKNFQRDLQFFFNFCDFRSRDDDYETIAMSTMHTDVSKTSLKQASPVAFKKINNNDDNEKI
In words: radioligand competition against [125I-Leu31,Pro34]PYY, SK-N-MC membranes, Cheng-Prusoff.

Procedure for Y1 receptor: (§1) The final pellets were resuspended in approximately 20 ml of 50 mM Tris-HCl containing 5.0 mM MgCl₂, 0.1 mg/ml bacitracin, and 0.1% BSA (Buffer B), and held on ice for the receptor binding assay.
(§2) For assay, aliquots (0.4 ml) of the foregoing suspensions were incubated with 0.05 ml of 0.05 nM [¹²⁵I-Leu³¹, Pro³⁴]PYY (Y1 receptor) or [¹²⁵I]PYY(3-36) (Y2 receptor), (each ˜2200 Ci/mmol, New England Nuclear) in Buffer B, with or without 0.05 ml a solution (ranging from 0.01 nM -1000 nM) of an unlabeled competing peptide. After a 120 min incubation (25° C.), the bound radioligand was separated from the free by rapid filtration through GF/C filters, previously soaked in 0.3% polyethyleneimine. […] Inhibition constants (K₁,) were calculated using the well-known Cheng-Prusoff equation.
Procedure for Y2 receptor: as §1, §2

B1: Ac-[D2Pal^26]hPYY(22-36)NH2 (peptide)
peptide: Ac-ASLR[d2Pal]YLNLVTRQRY-NH2
SMILES: CC(=O)N[C@@H](C)C(=O)N[C@@H](CO)C(=O)N[C@@H](CC(C)C)C(=O)N[C@@H](CCCNC(=N)N)C(=O)N[C@H](Cc1ccccn1)C(=O)N[C@@H](Cc1ccc(O)cc1)C(=O)N[C@@H](CC(C)C)C(=O)N[C@@H](CC(N)=O)C(=O)N[C@@H](CC(C)C)C(=O)N[C@H](C(=O)N[C@H](C(=O)N[C@@H](CCCNC(=N)N)C(=O)N[C@@H](CCC(N)=O)C(=O)N[C@@H](CCCNC(=N)N)C(=O)N[C@@H](Cc1ccc(O)cc1)C(N)=O)[C@@H](C)O)C(C)C
notes: Synthetic analog of human PYY(22-36)
As a reminder, the Ki is the dissociation constant of the complex between target and ligand, obtained from inhibition or displacement. Lower therefore signals a stronger hold on the target. B1: the Ki was less than 1000 nM in the assay with Y2 receptor and less than 2000 nM in the assay with Y1 receptor.

B2: Ac-[A5c^31]hPYY(22-36)NH2 (peptide)
peptide: Ac-ASLRHYLNL[Ac5c]TRQRY-NH2
SMILES: CC(=O)N[C@@H](C)C(=O)N[C@@H](CO)C(=O)N[C@@H](CC(C)C)C(=O)N[C@@H](CCCNC(=N)N)C(=O)N[C@@H](Cc1c[nH]cn1)C(=O)N[C@@H](Cc1ccc(O)cc1)C(=O)N[C@@H](CC(C)C)C(=O)N[C@@H](CC(N)=O)C(=O)N[C@@H](CC(C)C)C(=O)NC1(C(=O)N[C@H](C(=O)N[C@@H](CCCNC(=N)N)C(=O)N[C@@H](CCC(N)=O)C(=O)N[C@@H](CCCNC(=N)N)C(=O)N[C@@H](Cc2ccc(O)cc2)C(N)=O)[C@@H](C)O)CCCC1
notes: as for B1
Take B2: the Ki with Y2 receptor is less than 1000 nM; with Y1 receptor it was less than 2000 nM.

B3: Ac-(Taz^26, Leu^31)hPPY(24-36)NH2 (peptide)
peptide: Ac-LR[Ala(4-thiazolyl)]YLNLLTRQRY-NH2
SMILES: CC(=O)N[C@@H](CC(C)C)C(=O)N[C@@H](CCCNC(=N)N)C(=O)N[C@@H](Cc1cscn1)C(=O)N[C@@H](Cc1ccc(O)cc1)C(=O)N[C@@H](CC(C)C)C(=O)N[C@@H](CC(N)=O)C(=O)N[C@@H](CC(C)C)C(=O)N[C@@H](CC(C)C)C(=O)N[C@H](C(=O)N[C@@H](CCCNC(=N)N)C(=O)N[C@@H](CCC(N)=O)C(=O)N[C@@H](CCCNC(=N)N)C(=O)N[C@@H](Cc1ccc(O)cc1)C(N)=O)[C@@H](C)O
notes: Also carries Leu at 31 (residue 8 of the peptide), already in the entry
B3: the Ki with Y2 receptor was less than 1000 nM; with Y1 receptor, less than 2000 nM.

B4: Ac-[A6c^31]hPYY(22-36)NH2 (peptide)
peptide: Ac-ASLRHYLNL[Ac6c]TRQRY-NH2
SMILES: CC(=O)N[C@@H](C)C(=O)N[C@@H](CO)C(=O)N[C@@H](CC(C)C)C(=O)N[C@@H](CCCNC(=N)N)C(=O)N[C@@H](Cc1c[nH]cn1)C(=O)N[C@@H](Cc1ccc(O)cc1)C(=O)N[C@@H](CC(C)C)C(=O)N[C@@H](CC(N)=O)C(=O)N[C@@H](CC(C)C)C(=O)NC1(C(=O)N[C@H](C(=O)N[C@@H](CCCNC(=N)N)C(=O)N[C@@H](CCC(N)=O)C(=O)N[C@@H](CCCNC(=N)N)C(=O)N[C@@H](Cc2ccc(O)cc2)C(N)=O)[C@@H](C)O)CCCCC1
notes: as for B1
With B4, the Ki is less than 1000 nM with Y2 receptor and less than 2000 nM with Y1 receptor.

B5: Ac-(3Pal^26, Leu^31)hPPY(24-36)NH2 (peptide)
peptide: Ac-LR[3Pal]YLNLLTRQRY-NH2
SMILES: CC(=O)N[C@@H](CC(C)C)C(=O)N[C@@H](CCCNC(=N)N)C(=O)N[C@@H](Cc1cccnc1)C(=O)N[C@@H](Cc1ccc(O)cc1)C(=O)N[C@@H](CC(C)C)C(=O)N[C@@H](CC(N)=O)C(=O)N[C@@H](CC(C)C)C(=O)N[C@@H](CC(C)C)C(=O)N[C@H](C(=O)N[C@@H](CCCNC(=N)N)C(=O)N[C@@H](CCC(N)=O)C(=O)N[C@@H](CCCNC(=N)N)C(=O)N[C@@H](Cc1ccc(O)cc1)C(N)=O)[C@@H](C)O
notes: as for B3
As to B5, the results for the Ki with Y2 receptor and in the assay with Y1 receptor were less than 1000 nM and less than 2000 nM, respectively.

B6: Ac-[A6c^28]hPYY(22-36)NH2 (peptide)
peptide: Ac-ASLRHY[Ac6c]NLVTRQRY-NH2
SMILES: CC(=O)N[C@@H](C)C(=O)N[C@@H](CO)C(=O)N[C@@H](CC(C)C)C(=O)N[C@@H](CCCNC(=N)N)C(=O)N[C@@H](Cc1c[nH]cn1)C(=O)N[C@@H](Cc1ccc(O)cc1)C(=O)NC1(C(=O)N[C@@H](CC(N)=O)C(=O)N[C@@H](CC(C)C)C(=O)N[C@H](C(=O)N[C@H](C(=O)N[C@@H](CCCNC(=N)N)C(=O)N[C@@H](CCC(N)=O)C(=O)N[C@@H](CCCNC(=N)N)C(=O)N[C@@H](Cc2ccc(O)cc2)C(N)=O)[C@@H](C)O)C(C)C)CCCCC1
notes: as for B1
Turning to B6, the Ki in the assay with Y2 receptor is less than 1000 nM; with Y1 receptor, less than 2000 nM.

B7: Ac-(4Pal^26, Leu^31)hPPY(24-36)NH2 (peptide)
peptide: Ac-LR[4Pal]YLNLLTRQRY-NH2
SMILES: CC(=O)N[C@@H](CC(C)C)C(=O)N[C@@H](CCCNC(=N)N)C(=O)N[C@@H](Cc1ccncc1)C(=O)N[C@@H](Cc1ccc(O)cc1)C(=O)N[C@@H](CC(C)C)C(=O)N[C@@H](CC(N)=O)C(=O)N[C@@H](CC(C)C)C(=O)N[C@@H](CC(C)C)C(=O)N[C@H](C(=O)N[C@@H](CCCNC(=N)N)C(=O)N[C@@H](CCC(N)=O)C(=O)N[C@@H](CCCNC(=N)N)C(=O)N[C@@H](Cc1ccc(O)cc1)C(N)=O)[C@@H](C)O
notes: as for B3
For B7, the inhibition constant (Ki) with Y2 receptor is less than 1000 nM; with Y1 receptor, less than 2000 nM.

B8: Ac-[3Pal^26]hPYY(22-36)NH2 (peptide)
peptide: Ac-ASLR[3Pal]YLNLVTRQRY-NH2
SMILES: CC(=O)N[C@@H](C)C(=O)N[C@@H](CO)C(=O)N[C@@H](CC(C)C)C(=O)N[C@@H](CCCNC(=N)N)C(=O)N[C@@H](Cc1cccnc1)C(=O)N[C@@H](Cc1ccc(O)cc1)C(=O)N[C@@H](CC(C)C)C(=O)N[C@@H](CC(N)=O)C(=O)N[C@@H](CC(C)C)C(=O)N[C@H](C(=O)N[C@H](C(=O)N[C@@H](CCCNC(=N)N)C(=O)N[C@@H](CCC(N)=O)C(=O)N[C@@H](CCCNC(=N)N)C(=O)N[C@@H](Cc1ccc(O)cc1)C(N)=O)[C@@H](C)O)C(C)C
notes: as for B1
On to B8, for which the Ki is less than 1000 nM with Y2 receptor and less than 2000 nM with Y1 receptor.

B9: Ac-[2Pal^26]hPYY(22-36)NH2 (peptide)
peptide: Ac-ASLR[2Pal]YLNLVTRQRY-NH2
SMILES: CC(=O)N[C@@H](C)C(=O)N[C@@H](CO)C(=O)N[C@@H](CC(C)C)C(=O)N[C@@H](CCCNC(=N)N)C(=O)N[C@@H](Cc1ccccn1)C(=O)N[C@@H](Cc1ccc(O)cc1)C(=O)N[C@@H](CC(C)C)C(=O)N[C@@H](CC(N)=O)C(=O)N[C@@H](CC(C)C)C(=O)N[C@H](C(=O)N[C@H](C(=O)N[C@@H](CCCNC(=N)N)C(=O)N[C@@H](CCC(N)=O)C(=O)N[C@@H](CCCNC(=N)N)C(=O)N[C@@H](Cc1ccc(O)cc1)C(N)=O)[C@@H](C)O)C(C)C
notes: as for B1
In the case of B9, the Ki with Y2 receptor is less than 1000 nM; with Y1 receptor, less than 2000 nM.

B10: Ac-[4Pal^26]hPYY(22-36)NH2 (peptide)
peptide: Ac-ASLR[4Pal]YLNLVTRQRY-NH2
SMILES: CC(=O)N[C@@H](C)C(=O)N[C@@H](CO)C(=O)N[C@@H](CC(C)C)C(=O)N[C@@H](CCCNC(=N)N)C(=O)N[C@@H](Cc1ccncc1)C(=O)N[C@@H](Cc1ccc(O)cc1)C(=O)N[C@@H](CC(C)C)C(=O)N[C@@H](CC(N)=O)C(=O)N[C@@H](CC(C)C)C(=O)N[C@H](C(=O)N[C@H](C(=O)N[C@@H](CCCNC(=N)N)C(=O)N[C@@H](CCC(N)=O)C(=O)N[C@@H](CCCNC(=N)N)C(=O)N[C@@H](Cc1ccc(O)cc1)C(N)=O)[C@@H](C)O)C(C)C
notes: as for B1
As for B10, the Ki was less than 1000 nM with Y2 receptor and less than 2000 nM with Y1 receptor.

B11: Ac-[A6c^30]hPYY(22-36)NH2 (peptide)
peptide: Ac-ASLRHYLN[Ac6c]VTRQRY-NH2
SMILES: CC(=O)N[C@@H](C)C(=O)N[C@@H](CO)C(=O)N[C@@H](CC(C)C)C(=O)N[C@@H](CCCNC(=N)N)C(=O)N[C@@H](Cc1c[nH]cn1)C(=O)N[C@@H](Cc1ccc(O)cc1)C(=O)N[C@@H](CC(C)C)C(=O)N[C@@H](CC(N)=O)C(=O)NC1(C(=O)N[C@H](C(=O)N[C@H](C(=O)N[C@@H](CCCNC(=N)N)C(=O)N[C@@H](CCC(N)=O)C(=O)N[C@@H](CCCNC(=N)N)C(=O)N[C@@H](Cc2ccc(O)cc2)C(N)=O)[C@@H](C)O)C(C)C)CCCCC1
notes: as for B1
In the case of B11, the Ki with Y2 receptor was less than 1000 nM; with Y1 receptor it was less than 2000 nM.

B12: Ac-(2Pal^26, Leu^31)hPPY(24-36)NH2 (peptide)
peptide: Ac-LR[2Pal]YLNLLTRQRY-NH2
SMILES: CC(=O)N[C@@H](CC(C)C)C(=O)N[C@@H](CCCNC(=N)N)C(=O)N[C@@H](Cc1ccccn1)C(=O)N[C@@H](Cc1ccc(O)cc1)C(=O)N[C@@H](CC(C)C)C(=O)N[C@@H](CC(N)=O)C(=O)N[C@@H](CC(C)C)C(=O)N[C@@H](CC(C)C)C(=O)N[C@H](C(=O)N[C@@H](CCCNC(=N)N)C(=O)N[C@@H](CCC(N)=O)C(=O)N[C@@H](CCCNC(=N)N)C(=O)N[C@@H](Cc1ccc(O)cc1)C(N)=O)[C@@H](C)O
notes: as for B3
On to B12, for which the Ki with Y2 receptor is less than 1000 nM; with Y1 receptor, less than 2000 nM.
